The text below walks through data of patent US20160101154A1 (SAMSUNG ELECTRONICS, published 2016).

The target in experiment [1] is integrin on U87MG cells. Briefly: cell-based or functional assay.
The target in experiment [2] is T1, Tie2 proteins (Q02763, R&D systems) (UniProt Q02763 23-745, limits assumed).
T1 construct: Bought protein coated on ELISA plates
Briefly: ELISA, Tie2 coated, Ang2 proteins at 5 µg/ml. Background: ELISA stands for enzyme-linked immunosorbent assay.

Experiment [3] addresses T2, integrin alpha5beta1 protein (R&D systems) (human, UniProt P08648 42-995; P05556 21-728, limits assumed).
T2 construct: Bought recombinant heterodimer coated on the ELISA plate; also called α5β1
As to the kind of experiment: ELISA, integrin coated at 5 µg/ml, FLAG-Ang2 at 10 µg/ml, anti-FLAG-HRP.

In experiment [4] the target is T3, integrin alphaVbeta1 protein (R&D systems) (human, UniProt P06756 31-992; P05556 21-728).
T3 construct: Bought recombinant heterodimer coated on the ELISA plate; also called αVβ1
T3 sequence (P06756 31-992 limits assumed, chain 1 of 2): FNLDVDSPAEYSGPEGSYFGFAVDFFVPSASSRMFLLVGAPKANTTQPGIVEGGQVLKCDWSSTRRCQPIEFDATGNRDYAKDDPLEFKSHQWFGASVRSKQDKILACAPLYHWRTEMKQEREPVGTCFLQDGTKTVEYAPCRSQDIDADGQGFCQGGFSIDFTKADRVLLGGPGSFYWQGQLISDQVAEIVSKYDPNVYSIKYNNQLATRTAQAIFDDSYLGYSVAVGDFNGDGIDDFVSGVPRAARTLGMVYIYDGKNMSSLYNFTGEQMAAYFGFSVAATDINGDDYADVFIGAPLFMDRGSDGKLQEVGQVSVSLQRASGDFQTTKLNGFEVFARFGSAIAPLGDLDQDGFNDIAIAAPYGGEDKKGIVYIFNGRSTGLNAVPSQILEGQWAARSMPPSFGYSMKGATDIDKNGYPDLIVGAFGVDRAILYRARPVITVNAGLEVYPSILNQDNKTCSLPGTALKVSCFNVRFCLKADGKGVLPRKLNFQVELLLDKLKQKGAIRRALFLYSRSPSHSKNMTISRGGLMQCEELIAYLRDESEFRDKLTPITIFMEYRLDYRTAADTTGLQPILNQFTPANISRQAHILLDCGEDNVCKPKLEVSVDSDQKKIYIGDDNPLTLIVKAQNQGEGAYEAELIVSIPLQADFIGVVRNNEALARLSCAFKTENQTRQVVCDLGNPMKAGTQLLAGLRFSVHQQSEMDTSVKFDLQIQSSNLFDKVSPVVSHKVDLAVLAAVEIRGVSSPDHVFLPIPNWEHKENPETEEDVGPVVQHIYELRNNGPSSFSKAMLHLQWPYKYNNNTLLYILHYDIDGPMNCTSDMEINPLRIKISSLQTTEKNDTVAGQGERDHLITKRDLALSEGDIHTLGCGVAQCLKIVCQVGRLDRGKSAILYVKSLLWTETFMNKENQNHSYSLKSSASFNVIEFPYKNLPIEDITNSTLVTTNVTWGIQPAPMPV
T3 sequence (P05556 21-728 limits assumed, chain 2 of 2): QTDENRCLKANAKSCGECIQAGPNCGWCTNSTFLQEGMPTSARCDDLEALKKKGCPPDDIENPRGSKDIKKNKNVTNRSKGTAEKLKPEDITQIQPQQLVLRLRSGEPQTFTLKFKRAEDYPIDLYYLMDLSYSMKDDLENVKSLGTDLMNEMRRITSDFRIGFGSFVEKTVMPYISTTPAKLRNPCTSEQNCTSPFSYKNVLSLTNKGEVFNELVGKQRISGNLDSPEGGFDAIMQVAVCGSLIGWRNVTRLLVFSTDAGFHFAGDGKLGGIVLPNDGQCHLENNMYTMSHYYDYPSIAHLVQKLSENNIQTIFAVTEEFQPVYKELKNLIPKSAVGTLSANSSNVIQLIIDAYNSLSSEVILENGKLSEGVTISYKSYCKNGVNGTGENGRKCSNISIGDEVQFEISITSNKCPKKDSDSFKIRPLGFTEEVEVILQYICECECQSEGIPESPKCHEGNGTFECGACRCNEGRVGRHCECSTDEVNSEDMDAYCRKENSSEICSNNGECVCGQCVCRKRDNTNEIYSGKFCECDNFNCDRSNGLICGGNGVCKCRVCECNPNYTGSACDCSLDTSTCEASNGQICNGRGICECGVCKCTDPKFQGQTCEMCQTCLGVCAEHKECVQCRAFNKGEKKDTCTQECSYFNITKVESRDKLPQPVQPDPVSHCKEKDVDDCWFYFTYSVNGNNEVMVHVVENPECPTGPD
The experiment is described as above.

For experiment [5], the target named is T4, integrin alphaVbeta3 protein (R&D systems) (human, UniProt P06756 31-992; P05106 27-718).
T4 construct: Bought recombinant heterodimer coated on the ELISA plate; also called αVβ3; integrin (αVβ3)
T4 sequence (P06756 31-992 limits assumed, chain 1 of 2): as the sequence (P06756 31-992 limits assumed, chain 1 of 2) above
T4 sequence (P05106 27-718 limits assumed, chain 2 of 2): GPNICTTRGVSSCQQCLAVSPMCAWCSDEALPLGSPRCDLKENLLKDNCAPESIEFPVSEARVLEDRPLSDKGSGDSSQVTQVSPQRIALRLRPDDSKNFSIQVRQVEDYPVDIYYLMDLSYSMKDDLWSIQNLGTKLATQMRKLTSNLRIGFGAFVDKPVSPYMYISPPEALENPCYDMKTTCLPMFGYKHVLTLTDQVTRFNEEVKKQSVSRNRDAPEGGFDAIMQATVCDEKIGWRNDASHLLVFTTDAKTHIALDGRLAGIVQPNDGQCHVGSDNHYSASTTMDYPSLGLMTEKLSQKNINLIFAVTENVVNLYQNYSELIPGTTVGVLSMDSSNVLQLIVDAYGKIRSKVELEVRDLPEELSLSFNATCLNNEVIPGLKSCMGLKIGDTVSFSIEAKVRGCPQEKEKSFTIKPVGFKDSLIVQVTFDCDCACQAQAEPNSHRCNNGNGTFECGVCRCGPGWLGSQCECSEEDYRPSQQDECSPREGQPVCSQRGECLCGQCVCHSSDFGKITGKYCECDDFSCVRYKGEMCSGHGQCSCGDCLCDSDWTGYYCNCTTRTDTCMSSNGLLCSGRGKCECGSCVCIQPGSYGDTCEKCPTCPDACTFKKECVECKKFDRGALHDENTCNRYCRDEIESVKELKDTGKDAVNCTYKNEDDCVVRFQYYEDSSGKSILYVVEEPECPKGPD
The description is as above.

Experiment [6] addresses T4, integrin alphaVbeta3 protein (R&D …). As to the kind of experiment: ELISA, integrin αVβ3 coated, Ang2 proteins at 5 µg/ml.

Numbering of substitutions follows the chain as printed. Names may count otherwise. Where only a bound is given, the exact number is not on record here.

T1 sequence (Q02763 23-745 limits assumed, one chain of several): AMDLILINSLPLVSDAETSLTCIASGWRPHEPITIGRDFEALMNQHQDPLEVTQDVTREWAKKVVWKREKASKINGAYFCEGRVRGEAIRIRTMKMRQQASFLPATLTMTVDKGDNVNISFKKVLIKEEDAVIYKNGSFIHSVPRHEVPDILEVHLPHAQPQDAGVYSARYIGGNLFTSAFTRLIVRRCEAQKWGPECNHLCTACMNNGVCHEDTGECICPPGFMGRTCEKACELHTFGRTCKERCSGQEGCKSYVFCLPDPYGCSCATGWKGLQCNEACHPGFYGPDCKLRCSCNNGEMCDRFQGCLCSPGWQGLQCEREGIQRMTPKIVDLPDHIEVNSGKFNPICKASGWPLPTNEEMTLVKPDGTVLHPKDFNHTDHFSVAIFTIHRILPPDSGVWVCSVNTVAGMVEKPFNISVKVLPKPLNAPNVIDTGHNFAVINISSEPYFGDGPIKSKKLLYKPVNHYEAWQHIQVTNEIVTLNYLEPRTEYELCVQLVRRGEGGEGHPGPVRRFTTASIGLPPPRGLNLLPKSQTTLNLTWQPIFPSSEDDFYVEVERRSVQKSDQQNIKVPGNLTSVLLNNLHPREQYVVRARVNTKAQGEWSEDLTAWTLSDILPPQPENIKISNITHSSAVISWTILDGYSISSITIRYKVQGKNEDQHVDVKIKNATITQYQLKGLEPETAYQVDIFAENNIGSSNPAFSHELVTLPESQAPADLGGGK
T2 sequence (P08648 42-995 limits assumed, chain 1 of 2): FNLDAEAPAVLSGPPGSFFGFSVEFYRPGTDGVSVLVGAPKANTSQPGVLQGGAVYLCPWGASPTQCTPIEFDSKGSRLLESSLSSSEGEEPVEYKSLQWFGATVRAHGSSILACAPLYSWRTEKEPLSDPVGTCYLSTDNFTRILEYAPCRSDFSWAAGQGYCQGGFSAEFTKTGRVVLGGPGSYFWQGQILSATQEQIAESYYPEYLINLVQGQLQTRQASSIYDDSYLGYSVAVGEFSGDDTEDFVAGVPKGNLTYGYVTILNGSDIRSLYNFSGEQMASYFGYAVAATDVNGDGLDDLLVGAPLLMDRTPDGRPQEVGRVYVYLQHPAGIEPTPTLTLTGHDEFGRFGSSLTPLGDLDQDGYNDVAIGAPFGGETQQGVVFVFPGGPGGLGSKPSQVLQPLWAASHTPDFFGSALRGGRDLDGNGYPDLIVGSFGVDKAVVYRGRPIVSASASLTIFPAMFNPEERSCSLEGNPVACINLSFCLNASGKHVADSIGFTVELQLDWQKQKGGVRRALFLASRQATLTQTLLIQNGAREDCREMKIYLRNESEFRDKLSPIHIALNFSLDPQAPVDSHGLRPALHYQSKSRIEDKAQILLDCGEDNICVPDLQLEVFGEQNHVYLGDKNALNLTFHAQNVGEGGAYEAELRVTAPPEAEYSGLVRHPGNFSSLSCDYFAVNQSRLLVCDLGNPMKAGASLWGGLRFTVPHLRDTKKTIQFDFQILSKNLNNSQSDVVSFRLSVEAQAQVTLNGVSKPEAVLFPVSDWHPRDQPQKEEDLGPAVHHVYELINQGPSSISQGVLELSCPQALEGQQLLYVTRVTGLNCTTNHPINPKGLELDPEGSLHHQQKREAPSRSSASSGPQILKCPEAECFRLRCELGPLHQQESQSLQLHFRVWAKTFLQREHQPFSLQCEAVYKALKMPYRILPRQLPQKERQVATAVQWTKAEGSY
T2 sequence (P05556 21-728 limits assumed, chain 2 of 2): as the sequence (P05556 21-728 limits assumed, chain 2 of 2) above

B1: Ang2 derived peptide of SEQ ID No. 24 (peptide)
peptide: LNYRIHLKGLTGTAG
For the molecule B1, the decrease in Ang2 dependent cell adhesion of U87MG cells to Ang2-coated plates, peptide at 100 µg/ml in experiment [1] was > 50%.

B2: Ang2 protein having FLAG sequences tagged at its N-terminal (FLAG-Ang2), wild type (ligand)
chain: DYKDDDDKYNNFRKSMDSIGKKQYQVQHGSCSYTFLLPEMDNCRSSSSPYVSNAVQRDAPLEYDDSVQRLQVLENIMENNTQWLMKLENYIQDNMKKEMVEIQQNAVQNQTAVMIEIGTNLLNQTAEQTRKLTDVEAQVLNQTTRLELQLLEHSLSTNKLEKQILDQTSEINKLQDKNSFLEKKVLAMEDKHIIQLQSIKEEKDQLQVLVSKQNSIIEELEKKIVTATVNNSVLQKQQHDLMETVNNLLTMMSTSNSAKDPTVAKEEQISFRDCAEVFKSGHTTNGIYTLTFPNSTEEIKAYCDMEAGGGGWTIIQRREDGSVDFQRTWKEYKVGFGNPSGEYWLGNEFVSQLTNQQRYVLKIHLKDWEGNEAYSLYEHFYLSSEELNYRIHLKGLTGTAGKISSISQPGNDFSTKDGDNDKCICKCSQMLTGGWWFDACGPSNLNGMYYPQRQNTNKFNGIKWYYWKGSGYSLKATTMMIRPADF
notes: it may include a signal peptide that is absent from the protein; also called FLAG-tagged Ang2; wild-type Ang2 protein
Regarding B2, the binding result in experiment [2], in experiment [3], in experiment [4] and in experiment [5] was “binds” in each case.

B3: FLAG-Ang2 protein modified form (Q362A) (ligand)
chain: B2 chain with Q352A
notes: also called Q362A Ang2 protein; Q362A modified form
Molecule B3 had an invasion of U87MG cells through matrigel-coated transwell toward 5 µg/ml Ang2 protein, 48 hours (fraction of wild type Ang2) in experiment [1] of 0.5. For the same molecule, the binding result in experiment [2] is “binds”. The “binding level relative to the wild type Ang2” value in experiment [6] was ≤ 50%.

B4: Ang2 derived peptide of SEQ ID No. 4 (peptide)
peptide: IYTLTFPNSTEEIKA
For the molecule B4, the decrease in Ang2 dependent cell adhesion of U87MG cells to Ang2-coated plates, peptide at 100 µg/ml in experiment [1] is > 50%.

B5: Ang2 derived peptide of SEQ ID No. 15 (Peptide 15) (peptide)
peptide: EYWLGNEFVSQLTNQ
Take B5: the decrease in Ang2 dependent cell adhesion of U87MG cells to Ang2-coated plates, peptide at 100 µg/ml in experiment [1] was > 50%.

B6: Ang2 derived peptide of SEQ ID No. 3 (peptide)
peptide: HTTNGIYTLTFPNST
With B6, the decrease in Ang2 dependent cell adhesion of U87MG cells to Ang2-coated plates, peptide at 100 µg/ml in experiment [1] is > 50%.
